Test results as given in PMC4909763 (Frontiers in Plant Science, 2016).

B1: ER-retained plant-made recombinant human butyrylcholinesterase (prBChE-ER) (enzyme)
chain: EDDIIIATKNGKVRGMNLTVFGGTVTAFLGIPYAQPPLGRLRFKKPQSLTKWSDIWNATKYANSCCQNIDQSFPGFHGSEMWNPNTDLSEDCLYLNVWIPAPKPKNATVLIWIYGGGFQTGTSSLHVYDGKFLARVERVIVVSMNYRVGALGFLALPGNPEAPGNMGLFDQQLALQWVQKNIAAFGGNPKSVTLFGESAGAASVSLHLLSPGSHSLFTRAILQSGSFNAPWAVTSLYEARNRTLNLAKLTGCSRENETEIIKCLRNKDPQEILLNEAFVVPYGTPLSVNFGPTVDGDFLTDMPDILLELGQFKKTQILVGVNKDEGTAFLVYGAPGFSKDNNSIITRKEFQEGLKIFFPGVSEFGKESILFHYTDWVDDQRPENYREALGDVVGDYNFICPALEFTKKFSEWGNNAFFYYFEHRSSKLPWPEWMGVMHGYEIEFVFGLPLERRDNYTKAEEILSRSIVKRWANFAKYGNPNETQNNSTSWPVFKSTEQKYLTLNTESTRIMTKLRAQQCRFWTSFFPKVLEMTGNIDEAEWEWKAGFHRWNNYMMDWKNQFNDYTSKKESCVGLKDEL
notes: also called prBChE+KDEL; rBChE+KDEL
B2: plant-made recombinant human butyrylcholinesterase, apoplast-targeted (prBChE) (enzyme, UniProt P06276 29-602, looked up)
chain: EDDIIIATKNGKVRGMNLTVFGGTVTAFLGIPYAQPPLGRLRFKKPQSLTKWSDIWNATKYANSCCQNIDQSFPGFHGSEMWNPNTDLSEDCLYLNVWIPAPKPKNATVLIWIYGGGFQTGTSSLHVYDGKFLARVERVIVVSMNYRVGALGFLALPGNPEAPGNMGLFDQQLALQWVQKNIAAFGGNPKSVTLFGESAGAASVSLHLLSPGSHSLFTRAILQSGSFNAPWAVTSLYEARNRTLNLAKLTGCSRENETEIIKCLRNKDPQEILLNEAFVVPYGTPLSVNFGPTVDGDFLTDMPDILLELGQFKKTQILVGVNKDEGTAFLVYGAPGFSKDNNSIITRKEFQEGLKIFFPGVSEFGKESILFHYTDWVDDQRPENYREALGDVVGDYNFICPALEFTKKFSEWGNNAFFYYFEHRSSKLPWPEWMGVMHGYEIEFVFGLPLERRDNYTKAEEILSRSIVKRWANFAKYGNPNETQNNSTSWPVFKSTEQKYLTLNTESTRIMTKLRAQQCRFWTSFFPKVLEMTGNIDEAEWEWKAGFHRWNNYMMDWKNQFNDYTSKKESCVGL
notes: also called prBuChE; prBChE-AWF

Target: the molecule itself
Assay: native gel or EMSA

Protein | stoichiometry N
B1 | 4
B2 | 4
